Measurements: patent US20070292434A1 (VIB VZW, published 2007)

B1: CRH2-FLAG-His (receptor, murine, UniProt P48356 428-635, looked up, not shown: small tags and cut ends)
chain: VNINISCETDGYLTKMTCRWSPSTIQSLVGSTVQLRYHRRSLYCPDSPSIHPTSEPKNCVLQRDGFYECVFQPIFLLSGYTMWIRINHSLGSLDSPPTCVLPDSVVKPLPPSNVKAEITVNTGLLKVSWEKPVFPENNLQFQIRYGLSGKEIQWKTHEVFDAKSKSASLLVSDLCAVYVVQVRCRRLDGLGYWSNWSSPAYTLVMDVK
notes: domain: CRH2; Expressed as a reduction-sensitive oligomeric complex; also called mLR CRH2-FLAG-His; soluble CRH2 domain
B2: FNIII-FLAG-His (receptor, murine, UniProt P48356 637-839, looked up, not shown: small tags and cut ends)
chain: PMRGPEFWRKMDGDVTKKERNVTLLWKPLTKNDSLCSVRRYVVKHRTAHNGTWSEDVGNRTNLTFLWTEPAHTVTVLAVNSLGASLVNFNLTFSWPMSKVSAVESLSAYPLSSSCVILSWTLSPDDYSLLYLVIEWKILNEDDGMKWLRIPSNVKKFYIHDNFIPIEKYQFSLYPVFMEGVGKPKIINGFTKDAIDKQQNDAG
notes: domain: FNIII domains; Secreted from COS-1 or Hek293T cells; runs as di-, tri- and higher order disulphide-linked clusters under non-reducing conditions; also called mLR FNIII-FLAG-His; soluble FNIII domains
B3: FNIII-FLAG-His cys672ser (receptor, murine, UniProt P48356 637-839, looked up, not shown: small tags and cut ends)
chain: PMRGPEFWRKMDGDVTKKERNVTLLWKPLTKNDSLSSVRRYVVKHRTAHNGTWSEDVGNRTNLTFLWTEPAHTVTVLAVNSLGASLVNFNLTFSWPMSKVSAVESLSAYPLSSSCVILSWTLSPDDYSLLYLVIEWKILNEDDGMKWLRIPSNVKKFYIHDNFIPIEKYQFSLYPVFMEGVGKPKIINGFTKDAIDKQQNDAG
notes: domain: FNIII domains
B4: FNIII-FLAG-His cys751ser (receptor, murine, UniProt P48356 637-839, looked up, not shown: small tags and cut ends)
chain: PMRGPEFWRKMDGDVTKKERNVTLLWKPLTKNDSLCSVRRYVVKHRTAHNGTWSEDVGNRTNLTFLWTEPAHTVTVLAVNSLGASLVNFNLTFSWPMSKVSAVESLSAYPLSSSSVILSWTLSPDDYSLLYLVIEWKILNEDDGMKWLRIPSNVKKFYIHDNFIPIEKYQFSLYPVFMEGVGKPKIINGFTKDAIDKQQNDAG
notes: domain: FNIII domains
B5: mLR ΔCRH1, ΔIg, ΔCRH2 cys751ser (receptor, murine, UniProt P48356 637-1162, looked up, not shown: small tags and cut ends)
chain: PMRGPEFWRKMDGDVTKKERNVTLLWKPLTKNDSLCSVRRYVVKHRTAHNGTWSEDVGNRTNLTFLWTEPAHTVTVLAVNSLGASLVNFNLTFSWPMSKVSAVESLSAYPLSSSSVILSWTLSPDDYSLLYLVIEWKILNEDDGMKWLRIPSNVKKFYIHDNFIPIEKYQFSLYPVFMEGVGKPKIINGFTKDAIDKQQNDAGLYVIVPIIISSCVLLLGTLLISHQRMKKLFWDDVPNPKNCSWAQGLNFQKPETFEHLFTKHAESVIFGPLLLEPEPISEEISVDTAWKNKDEMVPAAMVSLLLTTPDPESSSICISDQCNSANFSGSQSTQVTCEDECQRQPSVKYATLVSNDKLVETDEEQGFIHSPVSNCISSNHSPLRQSFSSSSWETEAQTFFLLSDQQPTMISPQLSFSGLDELLELEGSFPEENHREKSVCYLGVTSVNRRESGVLLTGEAGILCTFPAQCLFSDIRILQERCSHFVENNLSLGTSGENFVPYMPQFQTCSTHSHKIMENKMCDLTV
notes: domain: FNIII, transmembrane and cytoplasmic domains (CRH1, Ig and CRH2 deleted); also called single cys751ser mutant receptor
B6: mLR ΔCRH1, ΔIg, ΔCRH2 cys672ser (receptor, murine, UniProt P48356 637-1162, looked up, not shown: small tags and cut ends)
chain: PMRGPEFWRKMDGDVTKKERNVTLLWKPLTKNDSLSSVRRYVVKHRTAHNGTWSEDVGNRTNLTFLWTEPAHTVTVLAVNSLGASLVNFNLTFSWPMSKVSAVESLSAYPLSSSCVILSWTLSPDDYSLLYLVIEWKILNEDDGMKWLRIPSNVKKFYIHDNFIPIEKYQFSLYPVFMEGVGKPKIINGFTKDAIDKQQNDAGLYVIVPIIISSCVLLLGTLLISHQRMKKLFWDDVPNPKNCSWAQGLNFQKPETFEHLFTKHAESVIFGPLLLEPEPISEEISVDTAWKNKDEMVPAAMVSLLLTTPDPESSSICISDQCNSANFSGSQSTQVTCEDECQRQPSVKYATLVSNDKLVETDEEQGFIHSPVSNCISSNHSPLRQSFSSSSWETEAQTFFLLSDQQPTMISPQLSFSGLDELLELEGSFPEENHREKSVCYLGVTSVNRRESGVLLTGEAGILCTFPAQCLFSDIRILQERCSHFVENNLSLGTSGENFVPYMPQFQTCSTHSHKIMENKMCDLTV
notes: domain: FNIII, transmembrane and cytoplasmic domains (CRH1, Ig and CRH2 deleted)

Columns and labels:
[1] = target: the molecule itself; assay: non-reducing anti-FLAG Western blot of COS-1 supernatant (self-association)
Excerpt: Panel A: The plasmid encoding FNIII-FLAG-His was transfected in COS-1 cells. Supernatant was subjected to Western blot analysis under reducing (R) or non-reducing (NR) conditions with an anti-FLAG antibody.
Panel A: Plasmid pMET7 CRH2-FLAG-His was transiently transfected in COS-1 cells. Supernatant was subjected to Western blot analysis with an anti-FLAG antibody under reducing (R) and non-reducing (NR) conditions.
We next analyzed the ligand-independent clustering of the FNIII domains in more detail. Constructs were generated to produce secreted forms of the FNIII domains, either as a FLAG-His-, or as a SEAP-FLAG-tagged protein. When FNIII-FLAG-His was expressed in COS-1 cells and analyzed under non-reducing conditions, di-, tri- and even higher order clusters were observed (FIG. 2, panel A). This clustering is independent of protein concentration since transfection with smaller amounts of expression vector gave the same clustering pattern. To confirm this FNIII-clustering, we set up a His/SEAP co-precipitation experiment. In this assay, FNIII-SEAP-FLAG proteins were co-expressed with FNIII-FLAG-His, or with empty vector as a negative control. Supernatants were analyzed in a precipitation experiment with a Ni²⁺ affinity resin. Co-precipitated SEAP activity reflects interaction between the proteins. FIG. 2, panel B clearly confirms homotypic interaction of the FNIII domain.

[2] = target: the molecule itself; assay: non-reducing anti-FLAG Western blot of secreted protein (self-association)
[3] = target: the molecule itself; assay: non-reducing anti-FLAG Western blot of COS-1 lysates (self-association)
Excerpt: Panel A: Plasmids encoding (1) mLR ΔCRH1, ΔIg, ΔCRH2; (2) mLR ΔCRH1, ΔIg, ΔCRH2 cys672ser; (3) mLR ΔCRH1, ΔIg, ΔCRH2 cys751ser; (4) mLR ΔCRH1, ΔIg, ΔCRH2 cys672,751ser were transiently transfected in COS-1 cells. Transfected cells were lyzed in a reducing (R) or non-reducing (NR) loading buffer. Lysates were loaded on a SDS-PAGE gel, blotted to a nitro-cellulose membrane and subjected to Western blot with an anti-FLAG antibody.

Protein | binding result [1] | binding result [2] | binding result [3]
B1 | binds |  | 
B2 | binds |  | 
B3 |  | binds | 
B4 |  | binds | 
B5 |  |  | binds
B6 |  |  | binds
